In publication PMC9652321, “Structural basis of human SNAPc recognizing proximal sequence element of snRNA promoter” one finds Kd data, which are given here for one molecule.

For one data set, the target named is T1, mSNAPc#2 SNAP50-W350A (Homo sapiens, UniProt Q5SXM2;Q92966;Q16533;O75971 1-505;1-411;1-268;1-98, W350A).
T1 sequence 1: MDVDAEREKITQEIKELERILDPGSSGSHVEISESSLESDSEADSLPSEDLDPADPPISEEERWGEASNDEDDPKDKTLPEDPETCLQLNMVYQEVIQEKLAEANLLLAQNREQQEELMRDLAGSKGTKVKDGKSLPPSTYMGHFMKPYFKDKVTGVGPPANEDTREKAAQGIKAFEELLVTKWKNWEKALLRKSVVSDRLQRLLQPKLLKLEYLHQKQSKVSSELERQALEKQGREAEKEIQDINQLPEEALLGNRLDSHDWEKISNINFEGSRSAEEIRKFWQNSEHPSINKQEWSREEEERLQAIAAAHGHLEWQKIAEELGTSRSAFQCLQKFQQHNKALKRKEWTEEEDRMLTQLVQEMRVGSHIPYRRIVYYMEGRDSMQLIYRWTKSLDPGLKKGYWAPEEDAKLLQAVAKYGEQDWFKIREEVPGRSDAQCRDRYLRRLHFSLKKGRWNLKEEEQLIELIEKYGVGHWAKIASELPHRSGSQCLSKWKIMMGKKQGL
T1 sequence 2: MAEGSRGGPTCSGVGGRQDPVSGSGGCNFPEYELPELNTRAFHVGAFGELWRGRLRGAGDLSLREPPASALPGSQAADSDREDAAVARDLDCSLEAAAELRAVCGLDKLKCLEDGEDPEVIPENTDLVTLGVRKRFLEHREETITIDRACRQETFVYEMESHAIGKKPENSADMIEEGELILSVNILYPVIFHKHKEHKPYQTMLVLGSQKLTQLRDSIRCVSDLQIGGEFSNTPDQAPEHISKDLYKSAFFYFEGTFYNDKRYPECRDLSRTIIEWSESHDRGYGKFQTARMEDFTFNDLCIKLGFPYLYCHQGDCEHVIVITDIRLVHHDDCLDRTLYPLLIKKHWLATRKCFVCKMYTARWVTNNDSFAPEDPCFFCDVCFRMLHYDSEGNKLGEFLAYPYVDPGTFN
T1 sequence 3: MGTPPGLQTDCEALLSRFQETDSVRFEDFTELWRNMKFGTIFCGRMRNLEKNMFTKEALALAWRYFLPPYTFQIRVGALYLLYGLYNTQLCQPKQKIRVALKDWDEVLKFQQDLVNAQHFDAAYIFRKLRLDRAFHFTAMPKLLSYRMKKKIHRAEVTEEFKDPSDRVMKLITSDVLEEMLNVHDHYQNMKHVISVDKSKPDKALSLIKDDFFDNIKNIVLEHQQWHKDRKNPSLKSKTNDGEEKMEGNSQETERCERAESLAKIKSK
T1 sequence 4: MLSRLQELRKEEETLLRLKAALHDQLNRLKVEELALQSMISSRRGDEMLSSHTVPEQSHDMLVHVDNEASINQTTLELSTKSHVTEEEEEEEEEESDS
In words: SPR; EMSA: 100 mM KCl, 25 mM HEPES-K pH 7.6, 12.5 mM MgCl2, 10 uM ZnCl2, 0.1 mM EDTA, 10% glycerol, 3 mM DTT, 0.5 mM PMSF, 50 nM DNA, RT 30 min; SPR: 100 mM KCl, 12.5 mM MgCl2, 10 uM ZnCl2, 0.1 mM EDTA, 0.05% P20, 25 C. Particulars: protein: recombinant; tags: as P1; copies: 1;1;1;1. For orientation: SPR reads the build-up and loss of mass on a sensor chip optically.

In a further data set the target is T2, mSNAPc#2 2Mu (Homo sapiens, UniProt Q5SXM2;Q92966;Q16533;O75971 1-505;1-411;1-268;1-98, Y389A;R151A).
T2 sequence 1: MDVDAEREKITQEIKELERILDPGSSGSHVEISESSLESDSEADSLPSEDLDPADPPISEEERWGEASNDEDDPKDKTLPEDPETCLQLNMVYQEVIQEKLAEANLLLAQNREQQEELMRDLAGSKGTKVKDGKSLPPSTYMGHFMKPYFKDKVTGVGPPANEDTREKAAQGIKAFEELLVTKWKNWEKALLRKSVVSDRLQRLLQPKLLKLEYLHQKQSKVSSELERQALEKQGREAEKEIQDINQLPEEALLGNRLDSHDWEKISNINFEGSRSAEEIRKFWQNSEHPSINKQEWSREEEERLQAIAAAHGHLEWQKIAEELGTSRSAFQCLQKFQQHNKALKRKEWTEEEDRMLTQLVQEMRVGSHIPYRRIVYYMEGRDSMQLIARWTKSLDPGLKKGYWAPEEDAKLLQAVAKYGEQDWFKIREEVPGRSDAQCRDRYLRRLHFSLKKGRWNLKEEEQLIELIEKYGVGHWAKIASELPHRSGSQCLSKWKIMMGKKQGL
T2 sequence 2: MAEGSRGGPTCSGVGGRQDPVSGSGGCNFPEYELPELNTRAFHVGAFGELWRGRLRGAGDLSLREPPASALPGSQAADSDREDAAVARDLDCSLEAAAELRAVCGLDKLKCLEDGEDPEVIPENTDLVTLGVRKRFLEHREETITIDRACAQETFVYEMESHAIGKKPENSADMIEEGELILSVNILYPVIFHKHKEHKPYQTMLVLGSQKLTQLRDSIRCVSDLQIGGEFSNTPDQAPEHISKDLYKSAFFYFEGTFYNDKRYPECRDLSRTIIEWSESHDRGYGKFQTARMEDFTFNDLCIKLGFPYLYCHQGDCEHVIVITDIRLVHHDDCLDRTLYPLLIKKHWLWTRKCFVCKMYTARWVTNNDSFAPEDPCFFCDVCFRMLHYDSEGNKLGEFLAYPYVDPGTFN
T2 sequence 3: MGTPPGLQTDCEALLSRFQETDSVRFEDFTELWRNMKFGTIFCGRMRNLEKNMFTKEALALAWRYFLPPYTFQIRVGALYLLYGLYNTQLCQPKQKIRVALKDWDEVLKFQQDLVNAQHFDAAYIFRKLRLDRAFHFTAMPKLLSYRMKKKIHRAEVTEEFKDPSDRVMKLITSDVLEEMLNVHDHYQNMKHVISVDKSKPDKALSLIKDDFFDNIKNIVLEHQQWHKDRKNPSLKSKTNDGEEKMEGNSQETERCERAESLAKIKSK
T2 sequence 4: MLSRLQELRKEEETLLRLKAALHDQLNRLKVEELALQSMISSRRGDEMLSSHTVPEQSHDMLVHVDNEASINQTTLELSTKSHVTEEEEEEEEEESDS
The description is as above. As to conditions: protein: recombinant; tags: as P1; copies: 1;1;1;1.

B1: 25 bp hU6-1 PSE (SPR) (dsDNA)
DNA 1: TGCTTACCGTAACTTGAAAGTATTT
DNA 2: AAATACTTTCAAGTTACGGTAAGCA
Broadly, the Kd is the constant that tells how readily two partners part at equilibrium. B1: the equilibrium dissociation constant (Kd) in the data set with mSNAPc#2 SNAP50-W350A turned out to be 887 nM; in the data set with mSNAPc#2 2Mu it was 1620 nM.
